Data from the supplement of paper PMC10126150.
± gives the standard deviation of the averaged measurements.

The sequences below were run on ATP (assay: switch fluorescence ratio, 500 uM ATP over buffer (Cy3 cluster intensity, sum of 5 cycles each) (fold (ratio)); higher = stronger signal-on switching upon ATP binding; sequences stand for … in TCGTCGGCAGCGTCAGATGTGTATAAGAGACAGTTTTTTTTTTTTTTTTTTTTTTTTT…TC). Settings: aptamer strand: ATP DNA aptamer (quencher-CACCTGGGGGAGTATTGCGGAGGAAGG + anchor), 100 nM annealed; ATP concentration: 500 uM.
In short: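 Imaging in selection buffer was followed by imaging after 15 min with 500 uM ATP at 22 °C, for Cy3-labelled switching-strand clusters annealed to 100 nM quencher-labelled ATP aptamer on a modified Illumina MiSeq flow-cell. Five of these buffer/ATP cycles ran, separated by NaOH stripping and re-annealing. The fluorescence ratio per cluster is summed target-cycle over summed buffer-cycle Cy3 intensity, averaged per switch-domain sequence; clusters outside 100-1000 RFU were removed.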
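Note: ATP exposure 15 min at 22 °C before imaging.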

Row | Sequence | switch fluorescence ratio
1 | GCTGTAGCGG | 1.02 ± 0.031
2 | TAAAGAGAGA | 1.03 ± 0.012
3 | CGCTTTACTA | 2.21 ± 0.07
4 | GGAATGACGA | 0.989 ± 0.048
5 | CCAGCTGGGT | 1.0117 ± 0.0005
6 | GCTTTGGTTT | 0.983 ± 0.022
7 | CGAGGTTGGG | 1.002 ± 0.0028
8 | TTTAGGTAGT | 0.975 ± 0.021
9 | ATTTTTGAGA | 0.986 ± 0.017
10 | GTTAACTTTG | 1.0027 ± 0.00076
11 | CATGGGGGAT | 1.01 ± 0.035
12 | AGGACTTTAG | 0.943 ± 0.091
13 | CCACGCTCGC | 2.33 ± 0.21
14 | TTAAATTTCG | 1.003 ± 0.0035
15 | TGAGAAAATT | 1.017 ± 0.0034
16 | TGGAGGAGCG | 0.955 ± 0.036
17 | CTGGGAGAAT | 1 ± 0.024
18 | AAAGGACGTG | 0.9356 ± 0.0076
19 | TTTTTTAAAA | 0.995 ± 0.03
20 | GGCTTCTTGT | 1.01 ± 0.009
21 | ATCTGTTTTT | 0.972 ± 0.0075
22 | TCGAGGCACT | 1.28 ± 0.17
23 | TACAAGAAGG | 1.015 ± 0.0066

Row | Sequence | switch fluorescence ratio
24 | ATTTGGTTAG | 0.987 ± 0.025
25 | GGTGGGGT | 1.01 ± 0.0055
26 | ACAAGGATA | 1.006 ± 0.0077
27 | TTTCTGACGG | 1.35 ± 0.58
28 | AAGGACGCCA | 1.05 ± 0.028
29 | TTAGTTGAAT | 0.985 ± 0.04
30 | GTTTGTGGTA | 0.978 ± 0.011
31 | ATCAGATATG | 0.9974 ± 0.0033
32 | ACCTTTAGTG | 1.03 ± 0.019
33 | TTTTAAACTT | 1.09 ± 0.15
34 | GGGGGCTGAA | 0.985 ± 0.027
35 | ATAATGTGGG | 0.99618 ± 0.00014
36 | TGTGAGTTAG | 1 ± 0.025
37 | CATAAATCAA | 0.9925 ± 0.006
38 | TGCTTTAGGT | 0.9922 ± 0.0092
39 | GCATGCGCGC | 0.984 ± 0.012
40 | CAGGGGTGTG | 0.996 ± 0.0076
41 | GATGTGTTTT | 0.974 ± 0.02
42 | GTAGCGCGTC | 1.03 ± 0.026
43 | TGAGGGAGTG | 0.996 ± 0.021
44 | ATATTATTTC | 1.006 ± 0.0058
45 | TTTAGGGACA | 1.15 ± 0.1
46 | ATGTGAAAGA | 0.982 ± 0.011

Row | Sequence | switch fluorescence ratio
47 | GTTGTAAAAA | 0.968 ± 0.046
48 | CTGGGTCGGC | 0.965 ± 0.04
49 | TGTAGTATCG | 1.016 ± 0.0045
50 | TCGGCCAGGT | 1.5 ± 0.046
51 | TCCATAAAAA | 0.999 ± 0.022
52 | TATTAGAGGT | 0.997 ± 0.019
53 | TCAGGGGCTG | 0.974 ± 0.043
54 | CGTAGTTGG | 0.988 ± 0.049
55 | GAGAGGACAT | 0.996 ± 0.011
56 | GTTTTTTAAA | 0.987 ± 0.04
57 | GGCGGACAGG | 1.038 ± 0.0062
58 | TATTAGGGGA | 1.02 ± 0.013
59 | CATATTTA | 0.992 ± 0.02
60 | GGTCTACCGG | 1.01 ± 0.017
61 | GATCCACGTG | 1.03 ± 0.015
62 | AATGTCAGCT | 1.01 ± 0.021
63 | GAAGTAGAGT | 0.963 ± 0.028
64 | GCATGTGTGG | 0.995 ± 0.065
65 | TCCTCAGTGC | 1.93 ± 0.13
66 | CATATTGGAT | 1.02 ± 0.036
67 | AAGGTTGGTC | 1 ± 0.027
68 | TCTATTGGA | 0.9949 ± 0.0037
69 | ATTAATCGCT | 0.9931 ± 0.0042

Row | Sequence | switch fluorescence ratio
70 | ACACCCTTGG | 1.08 ± 0.098
71 | CATGTATTAT | 0.985 ± 0.034
72 | ACGTGTAGGG | 1 ± 0.025
73 | GAAGGTGTGC | 1.07 ± 0.1
74 | AAAAATGTCC | 1.07 ± 0.03
75 | CTTTTAATTT | 1.04 ± 0.022
76 | ATTGATTAGT | 1.12 ± 0.18
77 | TTTTTCTCGG | 0.992 ± 0.01
78 | TTGCTAATGC | 1.18 ± 0.23
79 | TTTAGGGACT | 1.02 ± 0.024
80 | CCCGTTTTTG | 0.986 ± 0.014
81 | GTGTAAGATG | 1.0023 ± 0.0005
82 | TGGTTAGAAA | 1.04 ± 0.017
83 | ATTGGTCAAG | 0.985 ± 0.039
84 | GGAATCCTTG | 1 ± 0.0087
85 | TTTTTTGATG | 1.01 ± 0.027
86 | TGTATAAGGT | 0.966 ± 0.023
87 | GGAATGGTAG | 1.01 ± 0.099
88 | TTGTCGTGTG | 1 ± 0.033
89 | GCCCTTTTTT | 1 ± 0.046
90 | AAGCTTTCGT | 1.03 ± 0.014
91 | GTCTAACTGC | 0.962 ± 0.033
92 | TGGGAAAAAA | 0.985 ± 0.035

Row | Sequence | switch fluorescence ratio
93 | GTTTATGGGT | 1.023 ± 0.009
94 | AGAGGTTATT | 0.9994 ± 0.0069
95 | GATTACATTT | 1.03 ± 0.022
96 | TGGGGTCAAA | 0.995 ± 0.036
97 | ATGCATAGAT | 1.01 ± 0.032
98 | ATAATGTACA | 1.04 ± 0.011
99 | CTGGGAAGGC | 1.13 ± 0.04
100 | TTTCTATGCG | 0.959 ± 0.025
101 | TCCATGTATC | 0.984 ± 0.02
102 | TTTGGGAGGT | 0.99 ± 0.063
103 | TGAAACTTGA | 1.042 ± 0.0055
104 | TCATGGGGGA | 1.03 ± 0.046
105 | CTGAGGGGGC | 1.02 ± 0.016
106 | GCATAAGATG | 1 ± 0.024
107 | GGCTATAATA | 1.01 ± 0.034
108 | AGAGTGGGGT | 0.962 ± 0.033
109 | TTCCCGGGGG | 1.06 ± 0.067
110 | GTAAAAGGGT | 1 ± 0.02
111 | CATCGGGGTC | 1.07 ± 0.021
112 | GGGAAATAGG | 1.01 ± 0.023
113 | TTAATGCAGG | 1.006 ± 0.006
114 | GTAGTAGGTG | 1 ± 0.033
115 | GCGGTACGGT | 1.03 ± 0.039

Row | Sequence | switch fluorescence ratio
116 | TATGTCCAGT | 1.0009 ± 0.00027
117 | CATATTTCGC | 1.03 ± 0.029
118 | CGGGGGTCCG | 0.926 ± 0.087
119 | GAGAGCCGTC | 1.08 ± 0.13
120 | AAGTGAAATT | 1.02 ± 0.018
121 | AGCTCTGACG | 1.02 ± 0.024
122 | AGTTGGGGAC | 1.012 ± 0.0071
123 | GATGTAGGGC | 1 ± 0.028
124 | TCCGACTCG | 1.09 ± 0.041
125 | GTGTTTTCGG | 0.985 ± 0.016
126 | TGGTTGGGAC | 0.9953 ± 0.0089
127 | ATGTTTATCG | 0.97 ± 0.016
128 | AATATTTTTC | 1.01 ± 0.015
129 | TGATAGGGTC | 1.06 ± 0.11
130 | TTCGAGGTTT | 0.982 ± 0.059
131 | TTCAGAGGCG | 1.04 ± 0.011
132 | ATAGTTACGC | 1.03 ± 0.022
133 | TATTATCTGC | 0.971 ± 0.021
134 | AGAGGAGGGA | 0.9737 ± 0.0047
135 | TAATGACTTG | 0.953 ± 0.031
136 | AAGGCCTATA | 0.998 ± 0.0088
137 | TTTTAAGTGA | 1.02 ± 0.05
138 | CGCTTAACGT | 1.05 ± 0.096

Row | Sequence | switch fluorescence ratio
139 | TTCGGAGTAC | 1.38 ± 0.14
140 | ATCCTCGTTG | 1.02 ± 0.03
141 | TGTGGTGGAG | 0.9617 ± 0.0071
142 | TTTTCGATCT | 1 ± 0.013
143 | AGGTTTTGTG | 1.02 ± 0.044
144 | TAGCGCAATT | 1.74 ± 0.22
145 | GGATTAAATG | 0.982 ± 0.037
146 | AGGGCAAGCG | 0.938 ± 0.041
147 | CTAGTAGTGT | 1.01 ± 0.022
148 | TCGTTGCATG | 1.01 ± 0.065
149 | AGGTTTTTGA | 0.991 ± 0.04
150 | ACTTTATTTC | 1.011 ± 0.006
151 | ATGGAACCTT | 1.28 ± 0.34
152 | ATGTTAGGGT | 0.988 ± 0.033
153 | CGAAAATGGG | 0.9772 ± 0.0058
154 | CCACACCATT | 1.058 ± 0.004
155 | GCTAGATGTA | 1.02 ± 0.015
156 | AAATAGCTTT | 0.9909 ± 0.0026
157 | TTTCATCTCT | 1 ± 0.04
